Values quoted from earlier work, collected in paper PMC7153410.
Where two headings read alike, the source gives them in different places. Values belong to the substance of their own block, whether it stands above or below them.

How the values were obtained:
MD-2 [1] = target: MD-2 (UniProt Q9JHF9)
TLR4-MD-2 (Homo sapiens) [2] = target: TLR4-MD-2 (Homo sapiens) (UniProt O00206)
RAGE (Homo sapiens) [3] = target: RAGE (Homo sapiens) (UniProt Q15109)
TLR4-MD-2 (Homo sapiens) [4] = target: TLR4-MD-2 (Homo sapiens) (UniProt O00206); remark: listed apart in the source
RAGE (Homo sapiens) [5] = target: RAGE (Homo sapiens) (UniProt Q15109); remark: listed apart in the source
RAGE (Homo sapiens) [6] = target: RAGE (Homo sapiens) (UniProt Q15109); remark: listed apart in the source
MD-2 [7] = target: MD-2 (UniProt Q9JHF9); remark: listed apart in the source

Sequence of UniProt Q15109 (Q15109 23-404): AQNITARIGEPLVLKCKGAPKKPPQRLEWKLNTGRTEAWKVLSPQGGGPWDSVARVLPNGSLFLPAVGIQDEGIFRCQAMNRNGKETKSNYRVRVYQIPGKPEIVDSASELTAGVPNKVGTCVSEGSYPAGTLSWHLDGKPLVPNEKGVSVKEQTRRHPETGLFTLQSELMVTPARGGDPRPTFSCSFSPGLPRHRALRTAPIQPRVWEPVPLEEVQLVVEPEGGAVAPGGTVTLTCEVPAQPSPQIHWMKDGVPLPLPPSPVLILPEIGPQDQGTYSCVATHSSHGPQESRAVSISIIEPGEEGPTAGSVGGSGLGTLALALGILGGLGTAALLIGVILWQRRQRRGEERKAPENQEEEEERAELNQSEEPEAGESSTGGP
Sequence of UniProt O00206 (O00206 24-839, chain 1 of 2): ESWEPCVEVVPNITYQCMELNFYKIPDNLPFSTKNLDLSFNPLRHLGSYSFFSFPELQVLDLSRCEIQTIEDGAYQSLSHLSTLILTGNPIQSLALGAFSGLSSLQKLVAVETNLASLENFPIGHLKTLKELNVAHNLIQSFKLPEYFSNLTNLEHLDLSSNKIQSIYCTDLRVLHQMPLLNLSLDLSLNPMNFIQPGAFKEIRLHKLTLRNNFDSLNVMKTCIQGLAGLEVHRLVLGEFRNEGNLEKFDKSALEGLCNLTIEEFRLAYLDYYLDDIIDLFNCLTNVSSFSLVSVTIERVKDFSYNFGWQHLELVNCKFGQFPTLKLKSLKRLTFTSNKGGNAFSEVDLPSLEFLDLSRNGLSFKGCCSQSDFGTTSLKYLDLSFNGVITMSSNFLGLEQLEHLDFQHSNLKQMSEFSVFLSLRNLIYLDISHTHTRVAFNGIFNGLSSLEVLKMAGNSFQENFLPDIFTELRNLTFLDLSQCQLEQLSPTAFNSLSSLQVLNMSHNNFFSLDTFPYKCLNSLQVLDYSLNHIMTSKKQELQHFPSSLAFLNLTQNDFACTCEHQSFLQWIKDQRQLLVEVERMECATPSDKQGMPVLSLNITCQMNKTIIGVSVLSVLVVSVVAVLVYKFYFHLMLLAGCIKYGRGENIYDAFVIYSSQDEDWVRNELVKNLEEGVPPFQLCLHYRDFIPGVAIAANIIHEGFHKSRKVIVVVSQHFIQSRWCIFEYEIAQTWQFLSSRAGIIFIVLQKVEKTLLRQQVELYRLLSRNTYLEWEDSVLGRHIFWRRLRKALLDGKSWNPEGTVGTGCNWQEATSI
Sequence of UniProt O00206 (Q9Y6Y9 19-160, chain 2 of 2, further chain): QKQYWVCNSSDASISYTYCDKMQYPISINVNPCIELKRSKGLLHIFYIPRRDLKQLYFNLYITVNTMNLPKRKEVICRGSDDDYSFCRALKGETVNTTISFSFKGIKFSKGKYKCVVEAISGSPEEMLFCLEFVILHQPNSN
Sequence of UniProt Q9JHF9 (Q9JHF9 19-160): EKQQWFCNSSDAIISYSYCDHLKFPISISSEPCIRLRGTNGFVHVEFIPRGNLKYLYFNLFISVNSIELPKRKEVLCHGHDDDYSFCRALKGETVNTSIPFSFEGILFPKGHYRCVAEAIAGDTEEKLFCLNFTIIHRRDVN

Kd (MD-2 [1]): 730 nM
Substance: S100A8 2-89 (from UniProt P27005)

Kd (TLR4-MD-2 (Homo sapiens) [2]): 3.8 nM | Kd (RAGE (Homo sapiens) [3]): 9.4 nM
Substance: S100A8-S100A9 (from UniProt P05109)

Kd (TLR4-MD-2 (Homo sapiens) [4]): 2.1 nM | Kd (RAGE (Homo sapiens) [5]): 38 nM
Substance: S100A9 (from UniProt P06702)

Kd (RAGE (Homo sapiens) [6]): 90 nM
Substance: S100A12 (from UniProt P80511)

Kd (MD-2 [7]): 30000 nM
Substance: SAA3 43-57 (from UniProt P04918)
